Biological target: T1, rhesus CD11a (rhesus) (UniProt H9Z8N3)
T1 sequence: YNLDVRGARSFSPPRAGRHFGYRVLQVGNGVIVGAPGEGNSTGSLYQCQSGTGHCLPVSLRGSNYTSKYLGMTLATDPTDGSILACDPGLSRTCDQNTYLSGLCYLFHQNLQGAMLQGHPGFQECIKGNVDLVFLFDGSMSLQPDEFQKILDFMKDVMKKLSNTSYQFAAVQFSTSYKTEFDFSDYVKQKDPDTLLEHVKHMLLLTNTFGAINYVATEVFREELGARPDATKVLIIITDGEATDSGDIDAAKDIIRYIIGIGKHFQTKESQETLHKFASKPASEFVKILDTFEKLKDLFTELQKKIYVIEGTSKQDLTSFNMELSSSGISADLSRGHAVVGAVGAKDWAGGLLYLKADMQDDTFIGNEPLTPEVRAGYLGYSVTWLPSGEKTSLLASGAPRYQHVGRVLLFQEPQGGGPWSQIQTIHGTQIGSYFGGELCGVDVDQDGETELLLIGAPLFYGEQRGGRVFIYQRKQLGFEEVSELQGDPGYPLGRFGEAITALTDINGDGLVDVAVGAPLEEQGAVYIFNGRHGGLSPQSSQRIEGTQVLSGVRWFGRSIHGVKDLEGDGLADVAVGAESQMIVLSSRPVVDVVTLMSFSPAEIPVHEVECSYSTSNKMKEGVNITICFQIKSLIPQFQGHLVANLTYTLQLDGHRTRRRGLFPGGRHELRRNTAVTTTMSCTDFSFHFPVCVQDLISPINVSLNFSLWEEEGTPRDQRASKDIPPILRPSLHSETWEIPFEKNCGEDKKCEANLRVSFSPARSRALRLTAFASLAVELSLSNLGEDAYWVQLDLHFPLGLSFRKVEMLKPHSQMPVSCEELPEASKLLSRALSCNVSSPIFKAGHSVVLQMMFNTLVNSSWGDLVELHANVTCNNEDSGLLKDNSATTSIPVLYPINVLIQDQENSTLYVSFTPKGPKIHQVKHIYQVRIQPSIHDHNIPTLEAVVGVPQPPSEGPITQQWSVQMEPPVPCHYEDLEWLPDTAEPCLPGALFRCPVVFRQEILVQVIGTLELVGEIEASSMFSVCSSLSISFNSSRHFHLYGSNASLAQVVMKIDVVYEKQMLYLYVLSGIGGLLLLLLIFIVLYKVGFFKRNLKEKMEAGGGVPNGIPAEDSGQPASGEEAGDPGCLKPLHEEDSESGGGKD
Test: rhesus PBL binding

Var.EC50/HuIgG1 EC50: 13.3
B1: HuIgG1 mutant SerL52Ala (antibody, V domains shown)
VH: EVQLVESGGGLVQPGGSLRLSCAASGYSFTGHWMNWVRQAPGKGLEWVGMIHPSDSETRYNQKFKDRFTISVDKSKNTLYLQMNSLRAEDTAVYYCARGIYFYGTTYFDYWGQGTLVTVSS
VL: DIQMTQSPSSLSASVGDRVTITCRASKTISKYLAWYQQKPGKAPKLLIYSGATLQSGVPSRFSGSGSGTDFTLTISSLQPEDFATYYCQQHNEYPLTFGQGTKVEIKR

Reference: patent US20040146507A1
